We go through one molecule from paper PMC4086275, “Cryo-EM structure of the Plasmodium falciparum 80S ribosome bound to the anti-protozoan drug emetine” (eLife, 2014).

The test addresses T1, eL8, ribosomal protein of the Pf60S subunit (P. falciparum (3D7 strain), UniProt Q8ILL2 1-283).
T1 construct: eL8 of the P. falciparum 3D7 cytoplasmic ribosome; total number of residues 283; built residues 40-46, 54-131, 147-283; extensions compared to human 11-24 and 279-283; Native protein as part of the whole 80S ribosome; also called Q8ILL2_PLAF7; PF3D7_1424400; source: endogenous, in Pf80S ribosomes purified from P. falciparum 3D7 parasites (sucrose cushion, 10-40% sucrose gradient)
T1 sequence (looked up): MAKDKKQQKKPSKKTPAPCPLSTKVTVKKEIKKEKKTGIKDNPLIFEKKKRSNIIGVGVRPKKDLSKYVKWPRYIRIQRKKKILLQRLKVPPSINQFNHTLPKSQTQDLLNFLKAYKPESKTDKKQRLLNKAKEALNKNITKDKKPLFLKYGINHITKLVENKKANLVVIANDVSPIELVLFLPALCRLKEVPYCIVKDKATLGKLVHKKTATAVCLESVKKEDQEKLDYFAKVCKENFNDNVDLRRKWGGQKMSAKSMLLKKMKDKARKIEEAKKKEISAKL
The test is described as follows: cryo-EM structure; native Pf80S ribosome purified from parasites, 160 nM, incubated with 1 mM emetine for 15 min at 25°C in 20 mM Hepes pH 7.4, 40 mM KCH3COO, 10 mM NH4CH3COO, 10 mM Mg(CH3COO)2, 5 mM 2-mercaptoethanol; 3.2 Å overall; the two proteins are members of the co-purified ribosome. The conditions noted are these: both partners purified.

B1: eS1, ribosomal protein of the Pf40S subunit (natural protein, P. falciparum (3D7 strain), UniProt O97313 1-262, looked up)
chain: MAVGKNKRTSKGKKGGKKKVTDVFTKKEWYDLKAPKMFLVRNFGKTLVTKTIGKKLATDSLKGRIYEVNLADLNNDEDQAHKKIKLSCDHIINRDCYTDFCGLSITRDKLCSLIRKGYTLIEGHTDVKTLDNYHLRMFCIAFTKKRQNQTKSTCYAQTSQIKKIRKKMVDIMTAEASKVLLKDLVKKFIPESIGKEIEKQCKKIYPLQNVLIRKVKILKRPKLDISKLMELHTDPKEESGKNVNALPESKEATNILTAELKH
notes: eS1 of the P. falciparum 3D7 cytoplasmic ribosome; total number of residues 262; built residues 24-233; extension compared to human 245-262; Native protein as part of the whole 80S ribosome; also called PF3D7_0322900; source: endogenous, in Pf80S ribosomes purified from P. falciparum 3D7 parasites (sucrose cushion, 10-40% sucrose gradient)
As to B1, the binding result is recorded as “binds”.
